Here are results for 1 substance from article PMC11758712.

The target of test [1] is monomeric ACE2 (a.a 19-611), C-terminally His-tagged (human) (UniProt Q9BYF1). Description: mass photometry.
Test [2] deals with Abdala (SARS-CoV-2 spike receptor-binding domain vaccine antigen produced in Pichia pastoris) (SARS-CoV-2 (Wuhan-Hu-1)) (UniProt P0DTC2). Put plainly: mass photometry.

monomeric ACE2 (a.a 19-611), C-terminally His-tagged (human), sequence (Q9BYF1 19-611): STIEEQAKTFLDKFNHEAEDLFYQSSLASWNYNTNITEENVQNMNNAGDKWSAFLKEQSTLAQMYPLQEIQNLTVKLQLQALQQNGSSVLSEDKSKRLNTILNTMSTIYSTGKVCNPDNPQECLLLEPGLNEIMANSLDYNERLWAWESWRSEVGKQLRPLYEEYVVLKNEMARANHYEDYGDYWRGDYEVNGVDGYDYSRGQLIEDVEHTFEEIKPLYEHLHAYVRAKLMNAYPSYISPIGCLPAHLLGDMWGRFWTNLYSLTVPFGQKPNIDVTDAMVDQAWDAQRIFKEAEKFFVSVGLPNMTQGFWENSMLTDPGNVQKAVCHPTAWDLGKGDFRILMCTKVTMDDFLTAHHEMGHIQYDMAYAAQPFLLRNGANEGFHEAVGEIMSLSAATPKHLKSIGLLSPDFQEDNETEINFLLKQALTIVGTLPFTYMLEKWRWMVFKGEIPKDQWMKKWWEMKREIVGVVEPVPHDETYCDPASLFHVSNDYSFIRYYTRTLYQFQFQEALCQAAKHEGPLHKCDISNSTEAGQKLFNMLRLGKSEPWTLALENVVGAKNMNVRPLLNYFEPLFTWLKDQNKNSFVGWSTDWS

“Abdala (SARS-CoV-2 spike receptor-binding domain vaccine antigen produced in Pichia pastoris) (from UniProt P0DTC2 319-541) (domain or fragment)”: the dissociation constant Kd – broadly, the free concentration of one partner at which half of the binding sites on the other are occupied at equilibrium, for simple one-to-one binding – in test [1] is 0.0555 µM. Also, in test [2], the percent dimeric species was found to be 5.6% and the stoichiometry N (in general, the number of molecules, sites or subunits per partner or assembly) was determined as 2.
